The results in this text go back to the supplement of paper PMC9112550, “Optimization of the antimicrobial peptide Bac7 by deep mutational scanning” (BMC Biology, 2022).
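Also: peptides expressed intracellularly from a pBAD plasmid library in pooled LB shake-flask culture, induced with 0.3% L-arabinose, DNA abundance read by NGS, three biological replicates, DESeq2 with apeglm shrinkage.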

The data set has as its system Escherichia coli TOP10. The experiment in a line: shrunken log2 fold change of peptide-encoding DNA abundance (4.5 h post-induction vs induction); higher = less antimicrobial activity (less host growth inhibition). The settings on record: time post-induction: 4.5 h; library: site-saturation at positions 5, 18, 19, 20.
As to RRIRWRPPRLPRPRPRPNLAPRP, the “shrunken log2 fold change” value came out at 0.0306. As for RRIRMRPPRLPRPRPRPWTYPRP, the “shrunken log2 fold change” value is -0.0551.

As for RRIRCRPPRLPRPRPRPCAIPRP, the “shrunken log2 fold change” value came to 0.651. In the case of RRIRNRPPRLPRPRPRPRDFPRP it was 0.0201; in that of RRIRHRPPRLPRPRPRPLEMPRP, -0.236; in that of RRIRARPPRLPRPRPRPVPEPRP, 0.499. As to RRIRPRPPRLPRPRPRPACFPRP, the “shrunken log2 fold change” value is 0.45. In the case of RRIRSRPPRLPRPRPRPSIQPRP it was -0.497; in that of RRIRTRPPRLPRPRPRPYRLPRP, -0.0268; in that of RRIRPRPPRLPRPRPRPQIAPRP, 0.115. On to RRIRIRPPRLPRPRPRPTRRPRP, for which the “shrunken log2 fold change” value came to 0.298. Regarding RRIRSRPPRLPRPRPRPPYMPRP, the “shrunken log2 fold change” value was -0.316. Turning to RRIRLRPPRLPRPRPRPHIKPRP, the “shrunken log2 fold change” value is -0.528.

Consider RRIRARPPRLPRPRPRPLPRPRP, for which the “shrunken log2 fold change” value was determined as 0.768. For RRIRSRPPRLPRPRPRPVGVPRP, the “shrunken log2 fold change” value stood at 0.0685. For RRIRCRPPRLPRPRPRPARDPRP, the “shrunken log2 fold change” value came out at 1.84. For the sequence RRIRPRPPRLPRPRPRPMMCPRP, the “shrunken log2 fold change” value was -0.147. For RRIRWRPPRLPRPRPRPGAIPRP, the “shrunken log2 fold change” value is -0.096.

Regarding RRIRPRPPRLPRPRPRPRQCPRP, the “shrunken log2 fold change” value was 0.126. Take RRIRYRPPRLPRPRPRPAEVPRP: the “shrunken log2 fold change” value is -0.0361. Regarding RRIRYRPPRLPRPRPRPPVNPRP, the “shrunken log2 fold change” value was -0.153.

Take RRIRERPPRLPRPRPRPLTNPRP: the “shrunken log2 fold change” value was -0.242.

As to RRIRCRPPRLPRPRPRPCKEPRP, the “shrunken log2 fold change” value was -0.35. With RRIRSRPPRLPRPRPRPEVFPRP, the “shrunken log2 fold change” value came out at 0.0779. Take RRIRKRPPRLPRPRPRPRTGPRP: the “shrunken log2 fold change” value is 0.376. Turning to RRIRQRPPRLPRPRPRPVNNPRP, the “shrunken log2 fold change” value was -0.0612. As for RRIRIRPPRLPRPRPRPLCTPRP, the “shrunken log2 fold change” value was -0.407. To RRIRSRPPRLPRPRPRPHYNPRP belongs -1.04; to RRIRERPPRLPRPRPRPKACPRP, 0.0288; to RRIRPRPPRLPRPRPRPFRLPRP, -0.465. Turning to RRIRTRPPRLPRPRPRPSTGPRP, the “shrunken log2 fold change” value was -0.285. On to RRIRRRPPRLPRPRPRPWPKPRP, for which the “shrunken log2 fold change” value turned out to be 0.13. For RRIRMRPPRLPRPRPRPRGAPRP, the “shrunken log2 fold change” value stood at 1.44. For RRIRPRPPRLPRPRPRPEPAPRP, the “shrunken log2 fold change” value turned out to be 0.572. For RRIRMRPPRLPRPRPRPPHSPRP, the “shrunken log2 fold change” value was 0.851. For RRIRHRPPRLPRPRPRPWPRPRP, the “shrunken log2 fold change” value amounted to 0.166. Take RRIRARPPRLPRPRPRPHLRPRP: the “shrunken log2 fold change” value worked out at 0.325. In the case of RRIRTRPPRLPRPRPRPLTAPRP, the “shrunken log2 fold change” value is -0.32.

RRIRRRPPRLPRPRPRPFMEPRP: the “shrunken log2 fold change” value worked out at 0.0534. For the sequence RRIRYRPPRLPRPRPRPMKSPRP, the “shrunken log2 fold change” value is -0.416.

RRIRRRPPRLPRPRPRPCEAPRP: the “shrunken log2 fold change” value is 0.127. Consider RRIRGRPPRLPRPRPRPCPAPRP, for which the “shrunken log2 fold change” value was found to be 0.383. In the case of RRIRCRPPRLPRPRPRPTKDPRP it was -0.489; in that of RRIRWRPPRLPRPRPRPGIAPRP, 0.411; in that of RRIRDRPPRLPRPRPRPQDHPRP, 0.0862. To RRIRLRPPRLPRPRPRPSFGPRP belongs 0.197; to RRIRKRPPRLPRPRPRPCGRPRP, 0.0548; to RRIRWRPPRLPRPRPRPCSQPRP, 0.0161. Take RRIRIRPPRLPRPRPRPQVVPRP: the “shrunken log2 fold change” value was -0.0262.

RRIRSRPPRLPRPRPRPAQVPRP: the “shrunken log2 fold change” value was 0.09. In the case of RRIRARPPRLPRPRPRPIQPPRP, the “shrunken log2 fold change” value was -0.0587.

On to RRIRKRPPRLPRPRPRPMLDPRP, for which the “shrunken log2 fold change” value was 0.16. To RRIRPRPPRLPRPRPRPPQVPRP belongs 0.368; to RRIRFRPPRLPRPRPRPHWMPRP, -0.457; to RRIRCRPPRLPRPRPRPDVFPRP, -0.151. With RRIRERPPRLPRPRPRPFFEPRP, the “shrunken log2 fold change” value was -0.0766. In the case of RRIRCRPPRLPRPRPRPEVRPRP it was 0.24; in that of RRIRYRPPRLPRPRPRPCNQPRP, -0.224; in that of RRIRPRPPRLPRPRPRPSPTPRP, 0.22. Turning to RRIRERPPRLPRPRPRPKEFPRP, the “shrunken log2 fold change” value was -0.11. In the case of RRIRRRPPRLPRPRPRPQGEPRP it was 0.373; in that of RRIRARPPRLPRPRPRPDKKPRP, 0.0318.

For the sequence RRIRKRPPRLPRPRPRPGIWPRP, the “shrunken log2 fold change” value worked out at 0.362. RRIRTRPPRLPRPRPRPVDIPRP: the “shrunken log2 fold change” value was -0.282. Consider RRIRSRPPRLPRPRPRPSDLPRP, for which the “shrunken log2 fold change” value was -0.254. Turning to RRIRVRPPRLPRPRPRPCMDPRP, the “shrunken log2 fold change” value was -0.836. Regarding RRIRNRPPRLPRPRPRPGRCPRP, the “shrunken log2 fold change” value worked out at 0.143.

Take RRIRYRPPRLPRPRPRPWPVPRP: the “shrunken log2 fold change” value stood at 0.0536. Consider RRIRHRPPRLPRPRPRPLGMPRP, for which the “shrunken log2 fold change” value is -0.227. On to RRIRSRPPRLPRPRPRPFCDPRP, for which the “shrunken log2 fold change” value is -0.353. For the sequence RRIRGRPPRLPRPRPRPQHLPRP, the “shrunken log2 fold change” value was -0.054.

As for RRIRNRPPRLPRPRPRPFQVPRP, the “shrunken log2 fold change” value was -0.134.

Consider RRIRIRPPRLPRPRPRPMFSPRP, for which the “shrunken log2 fold change” value is -0.433.

Take RRIRARPPRLPRPRPRPSPNPRP: the “shrunken log2 fold change” value was 0.0681. On to RRIRGRPPRLPRPRPRPGCMPRP, for which the “shrunken log2 fold change” value turned out to be 0.898. Turning to RRIRFRPPRLPRPRPRPKHEPRP, the “shrunken log2 fold change” value was found to be 0.286. Take RRIRGRPPRLPRPRPRPTYRPRP: the “shrunken log2 fold change” value amounted to 0.138.

As to RRIRPRPPRLPRPRPRPLFSPRP, the “shrunken log2 fold change” value was -0.103.

For RRIRIRPPRLPRPRPRPMVKPRP, the “shrunken log2 fold change” value is -0.0157.

As to RRIRKRPPRLPRPRPRPCYIPRP, the “shrunken log2 fold change” value was -0.0235. For the sequence RRIRMRPPRLPRPRPRPFHVPRP, the “shrunken log2 fold change” value is -0.726. In the case of RRIRQRPPRLPRPRPRPHPTPRP, the “shrunken log2 fold change” value was -0.13. Turning to RRIRVRPPRLPRPRPRPGGCPRP, the “shrunken log2 fold change” value stood at 0.261.

In the case of RRIRFRPPRLPRPRPRPTRLPRP, the “shrunken log2 fold change” value came to 0.08.

Turning to RRIRMRPPRLPRPRPRPLNLPRP, the “shrunken log2 fold change” value is -0.0841. With RRIRPRPPRLPRPRPRPYQCPRP, the “shrunken log2 fold change” value was -0.0702. RRIRCRPPRLPRPRPRPGLKPRP: the “shrunken log2 fold change” value was -0.113. On to RRIRERPPRLPRPRPRPTTKPRP, for which the “shrunken log2 fold change” value turned out to be 0.0648. As to RRIRMRPPRLPRPRPRPQGKPRP, the “shrunken log2 fold change” value was -0.0118. In the case of RRIRFRPPRLPRPRPRPMLVPRP, the “shrunken log2 fold change” value is -0.0924. For RRIRDRPPRLPRPRPRPLTHPRP, the “shrunken log2 fold change” value is 0.179. To RRIRHRPPRLPRPRPRPQPVPRP belongs 0.259; to RRIRWRPPRLPRPRPRPYHGPRP, -0.327. For RRIRFRPPRLPRPRPRPYVWPRP, the “shrunken log2 fold change” value is 0.109. Take RRIRNRPPRLPRPRPRPHGAPRP: the “shrunken log2 fold change” value stood at 0.245.

Take RRIRPRPPRLPRPRPRPFYNPRP: the “shrunken log2 fold change” value was -0.7. As for RRIRYRPPRLPRPRPRPSRLPRP, the “shrunken log2 fold change” value is -0.114. In the case of RRIRVRPPRLPRPRPRPYNFPRP, the “shrunken log2 fold change” value was -0.577. With RRIRDRPPRLPRPRPRPFDNPRP, the “shrunken log2 fold change” value worked out at 0.0553.

As to RRIRVRPPRLPRPRPRPDRWPRP, the “shrunken log2 fold change” value is 0.478. In the case of RRIRTRPPRLPRPRPRPSFIPRP, the “shrunken log2 fold change” value was -0.761. In the case of RRIRERPPRLPRPRPRPWNFPRP, the “shrunken log2 fold change” value was -0.0838. For the sequence RRIRLRPPRLPRPRPRPMPYPRP, the “shrunken log2 fold change” value was -0.0714.

For the sequence RRIRRRPPRLPRPRPRPTRVPRP, the “shrunken log2 fold change” value turned out to be 0.952. In the case of RRIRRRPPRLPRPRPRPNTSPRP, the “shrunken log2 fold change” value is -0.116.

For RRIRTRPPRLPRPRPRPMQGPRP, the “shrunken log2 fold change” value was determined as 0.321. Take RRIRSRPPRLPRPRPRPPTVPRP: the “shrunken log2 fold change” value is 0.153. To RRIRTRPPRLPRPRPRPKMNPRP belongs -0.558; to RRIRDRPPRLPRPRPRPANYPRP, -0.148. RRIRDRPPRLPRPRPRPPTVPRP: the “shrunken log2 fold change” value was 0.381. Take RRIRWRPPRLPRPRPRPYNEPRP: the “shrunken log2 fold change” value was -0.13. In the case of RRIRRRPPRLPRPRPRPTPDPRP it was 0.72; in that of RRIRQRPPRLPRPRPRPPCLPRP, -0.192; in that of RRIRPRPPRLPRPRPRPSETPRP, -0.182. Consider RRIRQRPPRLPRPRPRPWTQPRP, for which the “shrunken log2 fold change” value is 0.0496. As for RRIRARPPRLPRPRPRPHEYPRP, the “shrunken log2 fold change” value is -0.0609. With RRIRARPPRLPRPRPRPVTGPRP, the “shrunken log2 fold change” value amounted to 0.301. Regarding RRIRPRPPRLPRPRPRPWCGPRP, the “shrunken log2 fold change” value was 0.0629. In the case of RRIRLRPPRLPRPRPRPAESPRP, the “shrunken log2 fold change” value was 0.197.

On to RRIRYRPPRLPRPRPRPKSRPRP, for which the “shrunken log2 fold change” value is -0.552. On to RRIRSRPPRLPRPRPRPFRDPRP, for which the “shrunken log2 fold change” value was -0.123. Take RRIRYRPPRLPRPRPRPTTNPRP: the “shrunken log2 fold change” value was -0.837. On to RRIRARPPRLPRPRPRPKCRPRP, for which the “shrunken log2 fold change” value amounted to 0.237. As to RRIRHRPPRLPRPRPRPRFQPRP, the “shrunken log2 fold change” value was 0.00482.

For the sequence RRIRPRPPRLPRPRPRPQDAPRP, the “shrunken log2 fold change” value was 0.355.
